Among the data in the supplement of paper PMC12042874 are amyloid nucleation score values, retold here.

± gives the uncertainty stated by the source.

This data set in a line: amyloid nucleation score (Sup35N fusion, yeast selection) (log enrichment); library NNK2; higher = more nucleation; inactive = no reads after selection. The method in brief:
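DiMSum was used to calculate nucleation scores as log enrichment of output over input reads, centred on the mode score of non-aggregating sequences. Sequences with fewer than 100 input reads were not scored. Input and output came from Illumina sequencing of plasmid inserts in psi-negative yeast expressing peptides of 20 random codons fused to Sup35N, induced 24 hours with 100 μM copper sulfate and then grown 7 days at 30°C on medium lacking adenine and uracil.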
FTFIGGYVSYYRCIPIGILP had an amyloid nucleation score of 0.33 ± 0.74. The figure for WDRTTDSSFQVRKYQSENFL is 0.092 ± 1.1. In the case of TTTWGENLFASNYLLSKTAG it was -0.088 ± 1.1; in that of KARWLIFDDVFCCCKFGGWW, 9.018 ± 0.053. Substance SSNYYVLCFTMPYWFYSLV displayed an amyloid nucleation score of 1.02 ± 0.33. In the case of STCTLKCWRWMPWTSFSFRC it was 1.3 ± 0.21; in that of AVRTLDNMGLYAWISAKVCR, -0.184 ± 0.79. The entry for YTANLWYQAWMYSYCENPPT is “inactive”; for VHMVPHCATW it is 1.01 ± 0.38; for STLGPLGPSGYSRRARRLLA it is 7.415 ± 0.06. In the case of RNHFLLCFLRCNEEYAQVRG it was 3.69 ± 0.059; in that of LRFRVLFVFPRDPW, -0.918 ± 0.78. For FCRSVILSVQMLFKYAIYRF, the amyloid nucleation score was -1.37 ± 1.1. Substance NLRYVFRFII registered an amyloid nucleation score of 2.9 ± 0.073. In the case of SYYGFLSFCSKTCMPLMWLE it was -0.844 ± 0.54; in that of RAKTNSVGDLQYGIHVPMKG, -0.043 ± 0.37. The figure for LALSFIMMCPYR is 4.95 ± 0.079; for KRYLTGSEVIVGWCC it is 0.329 ± 0.38; for SCFRC it is 9.804 ± 0.047.

Turning to GRCYDFCHFYKQGRYSLGWV, the amyloid nucleation score was -1.06 ± 0.63. The entry for FIRYVCHNVWDICYHLEMLL is “inactive”; for YSFRGWSSSVWVTGWCGRSA it is 0.45 ± 0.62; for VHSSVRQMSDY it is 0.168 ± 0.4. SSANDNLNTERDQARLVTRC registered an amyloid nucleation score of -0.013 ± 0.36. The substance TQLTDASSELLPPGSRLQCS returned an amyloid nucleation score of 1.03 ± 0.36. The figure for SWETKVHIYMTDMLFSRHMS is 2.63 ± 0.086. In the case of NEDLIEKSLFCLAYSLFPTS it was -0.266 ± 0.62; in that of GTPDYGCSSNVYCD, “inactive”. In the case of VMWDNVLSVLLVSGRVAFPM it was 2.87 ± 0.099; in that of MIDWGVIV, -0.149 ± 0.76; in that of LTFNLLSTLTFVRVLVPPLA, 0.803 ± 0.34. Turning to LYTFGFSFLWKYSRFHV, the amyloid nucleation score result was “inactive”. In the case of VNCPRIMGSIGRLFVVYTQM it was 8.319 ± 0.06. The figure for VDNYEQLTMKNEHETNT is -0.902 ± 0.45; for LNVPGSAMNGRSRNPSF it is -0.661 ± 0.48. In the case of HVFLINLGLNCGQRYRYRSL it was 6.044 ± 0.047; in that of HRTLMIVKLCKRSGPFIL, -1.22 ± 0.42.

Turning to DNLVCCSCSHLIVWTLSVGA, the amyloid nucleation score came out at 9.548 ± 0.035. In the case of FQSVLCYE, the amyloid nucleation score is -0.708 ± 0.54. In the case of SVYGQRNTIIFEFSWMRTAS it was 7.492 ± 0.04. In the case of RAVEEYAVPS it was 0.878 ± 0.35; in that of FQYENNVDNG, -1.75 ± 0.62; in that of ANMCPYAHRVTGVMFCLLPW, “inactive”. With YTFYLNF, the amyloid nucleation score came to 5.27 ± 0.053. As for RRKVCYTSQVRRLVNQRNVS, the amyloid nucleation score is -1.11 ± 0.34. Turning to QVCRDDYEVDFLGCGCPRGH, the amyloid nucleation score was -0.588 ± 0.44.

Substance VFVMKMPWQSLISNLIFTSM returned an amyloid nucleation score of 1.23 ± 0.2. The figure for FKDSDVEEWLNVKIIYWGVC is -0.604 ± 0.41; for SELLRTLGALSFYMYSFIKH it is -1.98 ± 0.54; for MELRFDCF it is 0.089 ± 1.1. The figure for GKINITAFAWLKAFADRHWI is 0.705 ± 0.8; for FPNKITVIPSHTSRDNVNTL it is 0.261 ± 0.49.

Substance RLMQSVMCRRDLLL displayed an amyloid nucleation score of 0.883 ± 0.47. The substance ADIAYFRLVMLKHTIYPVHM displayed an amyloid nucleation score of 1.82 ± 0.27. In the case of ICYFLKGAFRR it was -0.493 ± 0.78; in that of YLGTDGFNDGLVGLTTNIMS, -0.798 ± 0.47; in that of NMFSLWVYKLAMFWIY, -0.701 ± 1.1. The figure for VNFPLVSGG is 0.114 ± 0.38; for FCTHPSFGTVMGMRAETGLD it is 0.516 ± 0.81. In the case of SLQYRTSDSQWYVVYCSQEP it was 0.484 ± 0.19; in that of RRWEL, 0.687 ± 0.34. RRDNPWLSHVIW returned an amyloid nucleation score of 1.06 ± 0.33.

Regarding RYLVVKEQDFPDEYAPY, the amyloid nucleation score was -0.271 ± 0.55. KLLAVVLFGDGLAFNN returned an amyloid nucleation score of 3.24 ± 0.064. In the case of YCYKSCCRDKLY it was -0.072 ± 1.1; in that of KNKWRSMV, 0.953 ± 0.18; in that of ATRGHIWDCSFGADYQCIPS, 5.97 ± 0.063.

IMTHLVSTR gave an amyloid nucleation score of 1.5 ± 0.3.

For the substance YELNSLMKMSYAEQFPKTWA, the amyloid nucleation score stood at 0.447 ± 0.46. In the case of SCPGLGNRIPDTVKYT it was 0.969 ± 0.22.

Substance NLKLPNRSSWVLPVQYRPFD had an amyloid nucleation score of 3.28 ± 0.053. As to LQVRLDTRR, the amyloid nucleation score amounted to 0.043 ± 0.5.

Take PRWAKYYVLSRC: the amyloid nucleation score is -1.6 ± 1.1. On to WYALARCYCDGPFSGGWFRM, for which the amyloid nucleation score is -0.022 ± 0.27. The figure for HMCHTVLHVSAGY is 0.246 ± 0.8; for GTCFQTINMGGCLIGGPG it is 2.69 ± 0.14; for YSVDACMMNGSVDKTVSFR it is 0.122 ± 1.1. In the case of TAHYDVGC it was -0.283 ± 1; in that of RGRHGASMELESVDKRTVSR, 0.656 ± 0.34; in that of VFFRLMKPNFGLP, 0.199 ± 1.1. In the case of FGMFGSSYYIMY it was 2.63 ± 0.093; in that of TRASYFCQSTANYSVSRSNM, 1.8 ± 0.3; in that of YRVYLVFYDFVFVFYMSKYL, “inactive”.

As to DVEHPLYWPEDVLKASSETV, the amyloid nucleation score was determined as 1.91 ± 0.12. With KRDFPISATSRLCVAFFFIY, the amyloid nucleation score was -0.975 ± 0.38. In the case of VGTAKYYFKGCLGTPRSNNL it was “inactive”; in that of VMLHPSNSLALNCLT, -0.297 ± 0.28; in that of MACTFHVLTMGRFWSAWHRM, 0.598 ± 0.29. With PQLSKVLGWNYRCVNLSIW, the amyloid nucleation score is 4.93 ± 0.086.

Substance SGFCQGGNSSRYMSII displayed an amyloid nucleation score of 1.9 ± 0.27. The figure for LGNIGRTFMYHS is 1.09 ± 0.27; for WIHMSFGRLNRYMVRMRGRM it is -0.71 ± 1. In turn, SYYEWARGTSVVLIAFVTSF displayed an amyloid nucleation score of -0.189 ± 0.48. The figure for NKNVSTGWYCVIESI is 1.26 ± 0.6. The figure for LNVRLFSVFFSHTSSSHSEN is 3.21 ± 0.061. In the case of VKVQKINGGCVGFDLTWLCN, the amyloid nucleation score turned out to be 8.863 ± 0.034.

As to HNLFNHIADNQGRGIEEKLT, the amyloid nucleation score was -0.003 ± 1.1. In the case of NTSMSPSQYCC it was 2.86 ± 0.16; in that of VFVWECGAIQSLLISYMNDM, -0.784 ± 0.53; in that of QARLLSYLGDLVLASSWKVL, -0.891 ± 0.64.

Substance LDIYYFKKNSWAFHGSAGYP returned an amyloid nucleation score of 1.87 ± 0.11. Consider SWLSYSVRSM, for which the amyloid nucleation score entry is “inactive”. In the case of FMYWLGCYIRLLCDNLKQRG it was -0.979 ± 0.49; in that of SICYFCLFLNIIDSDSIFAV, 5.87 ± 0.059; in that of AKVNCISIITEDILILSEMV, “inactive”. Regarding RVLLHSLRKYLIHDCDVYRA, the amyloid nucleation score is -0.474 ± 0.55. The figure for TGGRNVHNCNNNHASSWPRC is -1.05 ± 0.76; for TESGGSLYNPQLIPDIQGSH it is -0.552 ± 1.1.

In the case of TSMSYLLRFVCGFRCTYSLC, the amyloid nucleation score worked out at 0.854 ± 0.52. On to DIRIL, for which the amyloid nucleation score was -0.635 ± 0.44. In the case of IRPSLGRR it was 1.79 ± 0.26. In turn, YSTTDHKWSRNLGIIMVVMW returned an amyloid nucleation score of 0.185 ± 0.48. MCGNWLD came in with an amyloid nucleation score of 3.05 ± 0.055. For EAHGSWL, the amyloid nucleation score was determined as 0.764 ± 0.38. The figure for SPACLNS is 4.58 ± 0.053; for PMKLTILDTNGCNINRAPFS it is -1.02 ± 1.1; for AEWLINGISDGLDCVSFSNS it is “inactive”. In the case of CYYFLFNS it was 2.31 ± 0.062; in that of IPMPSCVQYYSVDYRWASLL, -1.27 ± 0.44; in that of QLHIWVVIRYPLYLINKTVW, 0.436 ± 0.8. In the case of VDYGQRAPTCITSHYHLNRC it was 0.227 ± 1.1. The substance STEAVMLQGVFHRSCCR gave an amyloid nucleation score of 0.761 ± 0.46. The figure for GIPVMPTDSRGTPGVMVFEY is -1.25 ± 1; for RTYVGRPENCKSWSYPMLMQ it is 4.805 ± 0.039. In the case of RVVLCVNLSPTSFVWSRIKE, the amyloid nucleation score was 3.45 ± 0.15. In the case of CYRPDRPIITIDLVCVRFS it was 1.9 ± 0.2; in that of FNAIYIKFTGRFSLTRDNRC, 1.73 ± 0.21.

Consider LDTCVFHHLVGIEKATIYR, for which the amyloid nucleation score was found to be 0.455 ± 0.48. In the case of NCKWCNT it was 0.996 ± 0.29.

For NALSIQVGSCPRSLISSVGP, the amyloid nucleation score worked out at 0.228 ± 1.

Turning to YNPSYLMELNEV, the amyloid nucleation score is -0.376 ± 0.55. The figure for HFIFVAYRWVSNNAELDLNF is -0.724 ± 0.63. The substance DTCYVTTYVWWKTLCPVGLV showed an amyloid nucleation score of 1.72 ± 0.31. In the case of IPIIGITNEVPMSVRFPSIF it was -1.07 ± 0.55.

For SRCASKFVTWEAYYTVSVKR, the amyloid nucleation score was 0.25 ± 0.8. In the case of NFVIQ it was 0.011 ± 0.56; in that of YCTGPVIWPWHKGLLSWYAW, 1.19 ± 0.57; in that of KVQNWMLNTHGFYSLRGFDQ, -0.857 ± 0.41. The figure for IVNSKFKHAGVHPFDSL is -0.125 ± 0.79.
